In patent publication US7029857B1, “Processes for obtaining compounds employing SNORF72 receptors” (H. Lundbeck A/S, priority 1999, dated 2006):
Read-outs that look alike come from different tables or passages of the source. No end group written: not given here.

How the values were obtained:
[1] = target: T1, SNORF62 (Homo sapiens, UniProt Q9HB89); assay: Displacement of [125I]rat NMU-23 binding in SNORF62-transfected COS-7 membranes; set-up: The SNORF62 cDNA codes for a protein of 426 amino acids; expressed in transfected cells; host or cells: COS-7 (transient, DEAE-dextran); conditions: for displacement of [125I]rat NMU-23 binding: SNORF62 membranes
T1 sequence (Q9HB89 1-426): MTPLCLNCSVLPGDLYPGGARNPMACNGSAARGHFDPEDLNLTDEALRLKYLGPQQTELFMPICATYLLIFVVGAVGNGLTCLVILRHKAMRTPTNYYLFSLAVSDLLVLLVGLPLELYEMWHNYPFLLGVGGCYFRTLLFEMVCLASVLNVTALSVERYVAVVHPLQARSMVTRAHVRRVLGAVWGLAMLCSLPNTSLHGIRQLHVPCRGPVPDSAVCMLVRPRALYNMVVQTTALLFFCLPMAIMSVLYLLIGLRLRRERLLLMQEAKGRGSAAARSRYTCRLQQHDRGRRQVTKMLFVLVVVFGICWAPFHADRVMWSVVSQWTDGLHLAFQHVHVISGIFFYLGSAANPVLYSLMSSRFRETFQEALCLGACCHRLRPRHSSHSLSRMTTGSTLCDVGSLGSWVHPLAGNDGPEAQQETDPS
Procedure: (§1) The specifics of preparing such cell membranes may in some cases be determined by the nature of the ensuing assay but typically involve harvesting whole cells and disrupting the cell pellet by sonication in ice cold buffer (e.g. 20 mM Tris HCl, mM EDTA, pH 7.4 at 4° C.). The resulting crude cell lysate is cleared of cell debris by low speed centrifugation at 200×g for 5 min at 4° C. The cleared supernatant is then centrifuged at 40,000×g for 20 min at 4° C., and the resulting membrane pellet is washed by suspending in ice cold buffer and repeating the high speed centrifugation step. The final washed membrane pellet is resuspended in assay buffer. Protein concentrations are determined by the method of Bradford (1976) using bovine serum albumin as a standard. The membranes may be used immediately or frozen for later use.
(§2) Radioligand binding assays were performed by diluting membranes prepared from cells expressing the receptor in 50 mM Tris buffer (pH=7.4 at 0° C.) containing 0.1% bovine serum albumin (Sigma), aprotinin (0.005 mg/ml, Boehringer Mannheim) and bestatin (0.1 mM, Sigma) as protease inhibitors. The final protein concentration in the assay was 12–40 μg/ml. […] The bound ligand was separated from free by filtration through GF/B filters presoaked in 0.5% polyethyleneimine (PEI), using a Tomtec (Wallac) vacuum filtration device. After addition of Ready Safe (Beckman) scintillation fluid, bound radioactivity was quantitated using a Trilux (Wallac) scintillation counter (approximately 40% counting efficiency of bound counts). Data was fit to non-linear curves using GraphPad Prism.
(§3) In this manner, agonist or antagonist compounds that bind to the receptor may be identified as they inhibit the binding of the labeled ligand to the membrane protein of cells expressing the said receptor. Non-specific binding was defined as the amount of radioactivity remaining after incubation of membrane protein in the presence of 100 nM of the unlabeled peptide corresponding to the radioligand used. In equilibrium saturation binding assays membrane preparations or intact cells transfected with the receptor are incubated in the presence of increasing concentrations of the labeled compound to determine the binding affinity of the labeled ligand.

[2] = target: T2, SNORF72 (Homo sapiens, UniProt Q9GZQ4, A395T); assay: Displacement of [125I]rat NMU-23 binding in SNORF72-transfected COS-7 membranes; conditions: for displacement of [125I]rat NMU-23 binding: SNORF72 membranes
T2 construct: expressed in transfected cells; host or cells: COS-7 (transient, DEAE-dextran)
Procedure: as §1, §2, §3

[3] = target: T2, SNORF72; assay: Intracellular Ca2+ release (FLIPR) in SNORF72-transfected COS-7 cells; type: cell-based; conditions: SNORF72, data not shown
Procedure: (§4) A typical protocol for the DEAE-dextran method as applied to COS-7 and HEK293 cells is described as follows. Cells to be used for transfection are split 24 hours prior to the transfection to provide flasks which are 70–80% confluent at the time of transfection. Briefly, 8 μg of receptor DNA plus 8 μg of any additional DNA needed (e.g. Gα protein expression vector, reporter construct, antibiotic resistance marker, mock vector, etc.) are added to 9 ml of complete DMEM plus DEAE-dextran mixture (10 mg/ml in PBS). Cells plated into a T225 flask (sub-confluent) are washed once with PBS and the DNA mixture is added to each flask. The cells are allowed to incubate for 30 minutes at 37° C., 5% CO2. Following the incubation, 36 ml of complete DMEM with 80 μM chloroquine is added to each flask and allowed to incubate an additional 3 hours. The medium is then aspirated and 24 ml of complete medium containing 10% DMSO for exactly 2 minutes and then aspirated. The cells are then washed 2 times with PBS and 30 ml of complete DMEM added to each flask. The cells are then allowed to incubate over night. The next day the cells are harvested by trypsinization and reseeded into 96 well plates.
(§5) Cells expressing the receptor of interest are plated into clear, flat-bottom, black-walled 96-well plates (Costar) at a density of 80,000–150,000 cells per well and allowed to incubate for 48 hr at 5% CO2, 37° C. The growth medium is aspirated and 100 μL of loading medium containing Fluo-3 dye is added to each well. The loading medium contains: 20 mM HEPES (Sigma), 0.1% BSA (Sigma), dye/pluronic acid mixture (e.g. 1 mM Fluo-3/AM (Molecular Probes) and 10% pluronic acid (Molecular Probes) mixed immediately before use), and 2.5 mM probenecid (Sigma)(prepared fresh). The cells are allowed to incubate for about 1 hour at 5% CO2, 37° C.
(§6) The compounds of interest are diluted in wash buffer (Hank's BSS (without phenol red), 20 mM HEPES, 2.5 mM probenecid) to a 4× final concentration and aliquoted into a clear v-bottom plate (Nunc). Following the dye incubation, the cells are washed 4 times to remove excess dye using a Denley plate washer. 100 μL final volume of wash buffer is then added to each cell well. Compounds are added to the cell plates and responses are measured using the FLIPR™ instrument. The data are then collected and analyzed using the FLIPR™ software and Graphpad Prism.
(§7) COS-7 cells were transiently transfected with SNORF62, SNORF72 or vector DNA (mock) as described in Materials and Methods.

[4] = target: T1, SNORF62; assay: Intracellular Ca2+ release (FLIPR) in SNORF62-transfected COS-7 cells; type: cell-based; set-up: The SNORF62 cDNA codes for a protein of 426 amino acids; expressed in transfected cells; host or cells: COS-7 (transient, DEAE-dextran); conditions: SNORF62, data not shown
Procedure: as §4, §5, §6, §7

[5] = target: T3, human SNORF62 receptor (human, UniProt Q9HB89 1-426); assay: displacement of [125I]rat NMU-23 (0.05-0.1 nM), membranes of SNORF62-transfected COS-7 cells, n=2
T3 sequence: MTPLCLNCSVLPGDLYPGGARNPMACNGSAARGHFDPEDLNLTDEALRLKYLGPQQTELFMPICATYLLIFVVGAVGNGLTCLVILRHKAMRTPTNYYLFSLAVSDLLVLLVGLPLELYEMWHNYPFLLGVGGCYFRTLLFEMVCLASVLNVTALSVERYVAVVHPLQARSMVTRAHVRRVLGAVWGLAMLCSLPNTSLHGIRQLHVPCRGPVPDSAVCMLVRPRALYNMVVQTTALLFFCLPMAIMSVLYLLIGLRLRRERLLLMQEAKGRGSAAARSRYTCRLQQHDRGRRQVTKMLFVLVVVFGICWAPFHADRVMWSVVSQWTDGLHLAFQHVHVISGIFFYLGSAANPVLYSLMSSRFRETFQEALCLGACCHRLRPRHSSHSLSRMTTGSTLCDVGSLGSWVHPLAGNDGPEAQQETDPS
Procedure: as §2, with “µg/ml.” for “μg/ml.”

[6] = target: T3, human SNORF62 receptor; assay: displacement of [125I]rat NMU-23, membranes of SNORF62-transfected COS-7 cells
Procedure: as §2, with “µg/ml.” for “μg/ml.”

[7] = target: T4, human SNORF72 receptor (human, UniProt Q9GZQ4 1-415); assay: displacement of [125I]rat NMU-23, membranes of SNORF72-transfected COS-7 cells
Procedure: as §2, with “µg/ml.” for “μg/ml.”

[8] = target: T4, human SNORF72 receptor; assay: displacement of [125I]rat NMU-23 (0.05-0.1 nM), membranes of SNORF72-transfected COS-7 cells, n=2
Procedure: as §2, with “µg/ml.” for “μg/ml.”

[9] = target: T4, human SNORF72 receptor; assay: cell-based or functional assay
[10] = target: T3, human SNORF62 receptor; assay: cell-based or functional assay
[11] = target: T3, human SNORF62 receptor; assay: cell-based or functional assay; remark: listed apart in the source

T4 sequence (Q9GZQ4 other isoform, or with tags, fused parts or gaps): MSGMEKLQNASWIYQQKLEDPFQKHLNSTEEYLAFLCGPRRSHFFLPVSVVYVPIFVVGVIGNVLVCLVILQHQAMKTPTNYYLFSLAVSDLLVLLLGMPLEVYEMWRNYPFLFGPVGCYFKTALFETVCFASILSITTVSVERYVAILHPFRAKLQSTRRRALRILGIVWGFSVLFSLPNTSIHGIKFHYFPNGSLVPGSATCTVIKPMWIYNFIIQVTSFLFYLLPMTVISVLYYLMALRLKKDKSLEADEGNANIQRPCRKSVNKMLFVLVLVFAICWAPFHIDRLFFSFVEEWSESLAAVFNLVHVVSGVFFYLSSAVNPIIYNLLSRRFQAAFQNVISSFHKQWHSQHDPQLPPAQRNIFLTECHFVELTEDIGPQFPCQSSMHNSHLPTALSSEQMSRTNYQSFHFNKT
T2 sequence (Q9GZQ4 whole entry A395T): as the sequence (Q9GZQ4 other isoform, or with tags, fused parts or gaps) above

## CC[C@H](C)[C@H](NC(=O)[C@H](CO)NC(=O)[C@H](CC(N)=O)NC(=O)[C@H](CC(C)C)NC(=O)[C@H](Cc1ccc(O)cc1)NC(=O)[C@H](CCCCN)NC(=O)[C@H](CCCCN)NC(=O)[C@@H](NC(=O)[C@H](C)NC(=O)[C@H](CCSC)NC(=O)[C@H](CCC(N)=O)NC(=O)[C@H](CCCCN)NC(=O)[C@H](CCCNC(=N)N)NC(=O)[C@H](CC(C)C)NC(=O)[C@H](CCCNC(=N)N)NC(=O)[C@@H](NC(=O)[C@H](Cc1ccc(O)cc1)NC(=O)[C@H](CC(N)=O)NC(=O)[C@H](CC(=O)O)NC(=O)[C@@H](NC(=O)[C@H](Cc1ccccc1)NC(=O)[C@@H](NC(=O)[C@H](C)NC(=O)[C@H](CC(=O)O)NC(=O)[C@H](CO)NC(=O)[C@@H](N)Cc1c[nH]cn1)C(C)C)[C@@H](C)O)[C@@H](C)O)C(C)C)C(=O)N[C@@H](CC(C)C)C(=O)N[C@@H](CC(N)=O)C(N)=O [VIP]
[1]
  displacement of [125I]rat NMU-23 binding: did not displace binding
[2]
  displacement of [125I]rat NMU-23 binding: did not displace binding
[3]
  activate the receptors in transfected COS-7 cells: did not
[4]
  activate the receptors in transfected COS-7 cells: did not

## CC[C@H](C)[C@H](NC(=O)[C@H](Cc1ccc(O)cc1)NC(=O)[C@H](CCCNC(=N)N)NC(=O)[C@H](CCCNC(=N)N)NC(=O)[C@H](CC(C)C)NC(=O)[C@H](CCC(N)=O)NC(=O)[C@@H](NC(=O)[C@H](CCC(=O)O)NC(=O)[C@H](Cc1ccc(O)cc1)NC(=O)[C@H](CCC(N)=O)NC(=O)[C@H](C)NC(=O)[C@H](CCCNC(=N)N)NC(=O)[C@H](CCC(N)=O)NC(=O)[C@H](CCC(=O)O)NC(=O)[C@H](Cc1c[nH]cn1)NC(=O)[C@@H](NC(=O)[C@H](C)NC(=O)[C@H](Cc1ccc(O)cc1)NC(=O)[C@H](CC(=O)O)NC(=O)CNC(=O)[C@@H]1CCCN1C(=O)[C@H](Cc1ccc(O)cc1)NC(=O)[C@H](CCSC)NC(=O)[C@@H]1CCCN1C(=O)[C@H](CCC(=O)O)NC(=O)[C@H](CC(C)C)NC(=O)[C@@H]1CCCN1C(=O)[C@H](C)N)[C@@H](C)O)[C@@H](C)O)C(=O)N[C@@H](CC(N)=O)C(=O)N[C@H](C(=O)N[C@@H](CC(C)C)C(=O)N[C@H](C(=O)N[C@@H](CCCNC(=N)N)C(=O)N1CCC[C@H]1C(=O)N[C@@H](CCCNC(=N)N)C(=O)N[C@@H](Cc1ccc(O)cc1)C(N)=O)[C@@H](C)O)[C@@H](C)O [rat PP]
[1]
  displacement of [125I]rat NMU-23 binding: did not displace binding
[1]; binding affinity, SNORF62-transfected COS-7 cells, unit printed in cell (Table 1A), read-out: SNORF62 Avg Ki
  Ki: > 10 µM
[1]; displacement of [125I]rat NMU-23 (0.05-0.1 nM), n = 2 (Table 2), read-out: SNORF62 Avg pKi (converted)
  Ki: > 10 µM
[2]
  displacement of [125I]rat NMU-23 binding: did not displace binding
[2]; binding affinity, SNORF72-transfected COS-7 cells, unit printed in cell (Table 1A), read-out: SNORF72 Avg Ki
  Ki: > 10 µM
[2]; displacement of [125I]rat NMU-23 (0.05-0.1 nM), n = 2 (Table 2), read-out: SNORF72 Avg pKi (converted)
  Ki: > 10 µM
[3]
  activate the receptors in transfected COS-7 cells: did not
[4]
  activate the receptors in transfected COS-7 cells: did not

## APSEPHHPGDQATQDQLAQYYSDLYQYITFVTRPRF-NH2 (C-terminus assumed) [frog PP]
[1]
  displacement of [125I]rat NMU-23 binding: did not displace binding
[2]
  displacement of [125I]rat NMU-23 binding: did not displace binding
[3]
  activate the receptors in transfected COS-7 cells: did not
[4]
  activate the receptors in transfected COS-7 cells: did not

## frog PP (peptide)
[5]
  pKi: < 5
[6]
  Ki: > 10 µM
[7]
  Ki: > 10 µM
[8]
  pKi: < 5

## FKVDEEFQGPIVSQNRRYFLFRPRN-NH2 (also called porcine neuromedin U-25) [porcine NMU-25]
[9]
  Avg EC50 (nM), stimulation of Ca2+ release in SNORF72-transfected COS-7 cells: 3 nM
[10]
  Avg EC50 (nM), stimulation of Ca2+ release in SNORF62-transfected COS-7 cells: 5.2 nM
[5]
  pKi: 9
[7]
  Ki: 0.0018 µM
[8]
  pKi: 8.7
[11]
  AVG EC50 (nM), stimulation of Ca++ release in SNORF62-transfected COS-7 cells (FLIPR): 5.2 nM

## HSDAVFTDNYTRLRKQMAVKKYLNSILN-NH2 (peptide, UniProt P01282 125-152, looked up, species assumed, ends and bridges not checked) [vasoactive intestinal peptide]
[5]
  pKi: < 5
[6]
  Ki: > 10 µM
[7]
  Ki: > 10 µM
[8]
  pKi: < 5

## APLEPMYPGDYATHEQRAQYETQLRRYINTLTRPRY (peptide, UniProt P06303 30-65, looked up, also called rat pancreatic polypeptide) [rat PP]
[5]
  pKi: < 5
[6]
  Ki: > 10 µM
[7]
  Ki: > 10 µM
[8]
  pKi: < 5
